Experimental data: patent publication US5885833

Target: E2F1-DP1 heterodimer (E2F1 aa 87-1398 as printed) (Homo sapiens?) (UniProt Q01094+Q14186)
Test: EMSA
[1] = complex not specified individually

E2F1-DP1 heterodimer (E2F1 aa 87-1398 as printed) (Homo sapiens?), sequence (Q01094 whole entry, chain 1 of 2, the tested form may be a part): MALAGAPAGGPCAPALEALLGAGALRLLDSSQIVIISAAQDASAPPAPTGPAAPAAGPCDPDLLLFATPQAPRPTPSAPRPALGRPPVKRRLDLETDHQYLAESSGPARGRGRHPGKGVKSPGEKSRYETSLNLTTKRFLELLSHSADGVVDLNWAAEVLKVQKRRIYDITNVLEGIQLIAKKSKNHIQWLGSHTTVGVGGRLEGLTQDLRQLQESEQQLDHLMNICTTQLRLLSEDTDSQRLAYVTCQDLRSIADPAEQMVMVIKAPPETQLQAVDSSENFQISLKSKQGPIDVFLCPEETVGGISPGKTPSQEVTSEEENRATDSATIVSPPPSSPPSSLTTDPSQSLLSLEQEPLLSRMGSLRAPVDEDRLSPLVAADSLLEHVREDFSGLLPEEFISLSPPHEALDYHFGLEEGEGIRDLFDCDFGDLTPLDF
E2F1-DP1 heterodimer (E2F1 aa 87-1398 as printed) (Homo sapiens?), sequence (Q14186 whole entry, chain 2 of 2, the tested form may be a part): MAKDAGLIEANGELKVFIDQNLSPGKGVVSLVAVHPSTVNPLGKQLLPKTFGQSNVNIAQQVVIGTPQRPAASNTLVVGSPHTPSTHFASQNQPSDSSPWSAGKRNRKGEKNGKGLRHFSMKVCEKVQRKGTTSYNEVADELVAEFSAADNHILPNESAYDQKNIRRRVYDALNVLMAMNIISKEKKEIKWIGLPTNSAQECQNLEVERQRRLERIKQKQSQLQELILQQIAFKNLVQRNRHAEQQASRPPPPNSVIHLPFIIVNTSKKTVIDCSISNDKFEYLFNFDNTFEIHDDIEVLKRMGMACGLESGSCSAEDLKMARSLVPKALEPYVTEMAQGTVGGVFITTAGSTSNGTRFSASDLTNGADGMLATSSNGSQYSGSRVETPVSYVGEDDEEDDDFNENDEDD

Row | Sequence | binding signal (% probe bound) [1] | binding signal (% probe bound) (22 C, 50 mM NaCl, pH 8.0)
1 | GATCCTCTCACCTGCTGCTAG (double strand) [control probe] | < 0.002 | –
2 | GATCGACTAGTTTCGCGCCCTTTCTACTAG (double strand) [E2a adenovirus promoter probe] | – | 1
3 | GGCGCCGACGCACTTGGCTGGAGATAGGAAAGTGGTTCTGTG (double strand) [mutated B-myb probe] | < 0.01 | –
